Data from patent publication US20200283521A1 (GRANULAR THERAPEUTICS, published 2020).
Read-outs that look alike come from different tables or passages of the source.

T1: CRIM1 (human, UniProt Q9NZV1 35-1036)
T1 construct: whole, on cells
T1 sequence (looked up): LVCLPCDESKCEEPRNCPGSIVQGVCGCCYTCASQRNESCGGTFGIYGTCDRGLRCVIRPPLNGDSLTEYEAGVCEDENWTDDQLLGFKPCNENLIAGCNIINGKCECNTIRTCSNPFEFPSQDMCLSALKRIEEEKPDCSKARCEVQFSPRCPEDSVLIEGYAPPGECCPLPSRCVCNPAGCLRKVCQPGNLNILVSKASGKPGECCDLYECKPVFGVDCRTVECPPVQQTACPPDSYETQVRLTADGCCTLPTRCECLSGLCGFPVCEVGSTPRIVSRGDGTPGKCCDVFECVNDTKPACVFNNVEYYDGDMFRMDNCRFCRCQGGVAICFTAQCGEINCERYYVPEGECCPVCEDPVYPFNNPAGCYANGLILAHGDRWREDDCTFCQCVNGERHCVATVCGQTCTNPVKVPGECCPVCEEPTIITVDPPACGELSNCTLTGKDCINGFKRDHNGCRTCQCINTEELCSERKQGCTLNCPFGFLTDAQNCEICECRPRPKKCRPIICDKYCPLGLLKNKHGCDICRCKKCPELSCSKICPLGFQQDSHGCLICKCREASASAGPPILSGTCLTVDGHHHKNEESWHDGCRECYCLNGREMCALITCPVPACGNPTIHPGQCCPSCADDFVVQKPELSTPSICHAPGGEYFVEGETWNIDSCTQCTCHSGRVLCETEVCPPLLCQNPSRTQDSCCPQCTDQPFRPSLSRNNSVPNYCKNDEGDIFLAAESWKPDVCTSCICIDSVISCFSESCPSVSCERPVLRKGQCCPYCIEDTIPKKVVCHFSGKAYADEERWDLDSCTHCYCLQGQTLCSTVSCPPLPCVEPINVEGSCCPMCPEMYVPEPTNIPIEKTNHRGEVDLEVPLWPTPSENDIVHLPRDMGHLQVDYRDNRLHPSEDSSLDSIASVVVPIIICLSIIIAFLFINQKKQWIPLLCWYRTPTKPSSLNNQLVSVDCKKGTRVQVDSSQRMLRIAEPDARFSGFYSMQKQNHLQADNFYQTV

T2: MMP7 (human, UniProt P09237 95-267)
T2 construct: whole, on cells
T2 sequence (looked up): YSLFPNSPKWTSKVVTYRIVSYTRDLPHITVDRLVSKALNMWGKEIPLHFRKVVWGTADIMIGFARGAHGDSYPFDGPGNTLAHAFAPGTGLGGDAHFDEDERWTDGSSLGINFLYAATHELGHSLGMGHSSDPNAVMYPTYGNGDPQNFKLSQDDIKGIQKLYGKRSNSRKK

T3: F13A1 (human, UniProt P00488 39-732)
T3 construct: whole, on cells
T3 sequence (looked up): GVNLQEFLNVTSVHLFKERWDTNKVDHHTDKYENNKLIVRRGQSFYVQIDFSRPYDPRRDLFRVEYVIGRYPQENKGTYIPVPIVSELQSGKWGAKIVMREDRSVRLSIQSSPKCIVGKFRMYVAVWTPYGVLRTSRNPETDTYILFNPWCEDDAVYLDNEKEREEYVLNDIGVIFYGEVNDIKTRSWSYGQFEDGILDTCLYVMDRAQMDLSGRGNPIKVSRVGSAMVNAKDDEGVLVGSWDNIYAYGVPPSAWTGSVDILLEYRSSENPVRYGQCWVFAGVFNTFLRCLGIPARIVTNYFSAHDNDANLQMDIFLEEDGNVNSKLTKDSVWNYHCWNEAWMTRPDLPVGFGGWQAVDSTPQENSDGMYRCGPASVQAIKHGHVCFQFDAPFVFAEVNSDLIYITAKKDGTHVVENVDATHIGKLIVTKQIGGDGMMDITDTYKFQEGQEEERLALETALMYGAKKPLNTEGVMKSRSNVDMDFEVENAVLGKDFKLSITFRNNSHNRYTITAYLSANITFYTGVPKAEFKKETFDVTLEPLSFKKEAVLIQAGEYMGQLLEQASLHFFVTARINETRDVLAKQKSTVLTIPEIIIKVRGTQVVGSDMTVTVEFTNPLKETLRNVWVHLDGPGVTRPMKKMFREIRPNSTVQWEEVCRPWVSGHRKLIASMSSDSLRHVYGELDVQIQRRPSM


Columns and labels:
human C-KIT-Fc [1] = target: T4, human C-KIT-Fc (human, UniProt P10721 26-524); test: direct titration ELISA on coated C-KIT-Fc, IgG1 format
T4 construct: also called biotinylated human C-KIT-Fc; not shown: Fc part not described

human C-KIT-Fc [2] = target: T4, human C-KIT-Fc; test: HTRF competition vs Tb-h37M IgG1
human C-KIT-Fc [3] = target: T4, human C-KIT-Fc; test: direct titration ELISA on coated C-KIT-Fc, IgG1 format; remark: listed apart in the source
[4] = target: T5, human C-KIT, full length, on cells (human, UniProt P10721 26-976); test: flow cytometry, C-KIT-transfected CHO-K1 cells, IgG1 format
T5 construct: full-length cDNA stably transfected in CHO-K1; also used here for endogenous C-KIT of TF-1 cells; also called human C-KIT+ CHO-K1 cells; C-KIT on TF-1 cells

human C-KIT-Fc [5] = target: T4, human C-KIT-Fc; test: HTRF competition vs Tb-h37M IgG1; remark: listed apart in the source
[6] = target: T6, cynomolgus monkey C-KIT-Fc (cynomolgus monkey); test: HTRF competition vs Tb-h37M IgG1
T6 construct: also called cyno C-KIT-Fc

[7] = target: T7, cynomolgus monkey C-KIT, full length, on CHO-K1 cells (cynomolgus monkey); test: flow cytometry, C-KIT-transfected CHO-K1 cells, IgG1 format
T7 construct: whole, on cells; also called cyno C-KIT+ CHO-K1 cells

human C-KIT-Fc [8] = target: T4, human C-KIT-Fc; test: direct ELISA at 1 µg/ml
[9] = target: T6, cynomolgus monkey C-KIT-Fc; test: direct ELISA at 1 µg/ml
CRIM1 = target: T1, CRIM1; test: cell array, HEK293 re-array slides
MMP7 = target: T2, MMP7; test: cell array, HEK293 re-array slides
F13A1 = target: T3, F13A1; test: cell array, HEK293 re-array slides
h4-1BB-Fc = target: T8, h4-1BB-Fc; test: direct ELISA on coated protein, IgG1
T8 construct: member of the panel m9

hCD4 = target: T9, hCD4 (human, UniProt P01730); test: direct ELISA on coated protein, IgG1
T9 construct: purified recombinant protein; member of the panel m9

T8 sequence (chain, as listed by the source limits assumed): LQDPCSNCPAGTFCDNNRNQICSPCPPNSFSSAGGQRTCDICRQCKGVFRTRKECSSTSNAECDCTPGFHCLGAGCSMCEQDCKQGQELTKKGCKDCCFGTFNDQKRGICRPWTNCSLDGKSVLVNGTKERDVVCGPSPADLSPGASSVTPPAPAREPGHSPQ

EC50 (read off the curve) (human C-KIT-Fc [1]) [µg/mL] | IC50 (human C-KIT-Fc [2]) [µg/mL] | EC50 (read off the curve) (human C-KIT-Fc [3]) [µg/mL] | EC50 (read off the curve) [4] [µg/mL] | IC50 (human C-KIT-Fc [5]) [µg/mL] | IC50 [6] [µg/mL] | EC50 (read off the curve) [7] [µg/mL] | OD450 nm (human C-KIT-Fc [8]) [OD450 nm] | OD450 nm [9] [OD450 nm] | binding result (CRIM1) | binding result (MMP7) | binding result (F13A1) | binding result (h4-1BB-Fc) | binding result (hCD4) | Binder
~0.1 | 0.063 | ~0.1 | ~0.3 | 0.067 | 0.058 | ~0.5 | > 1.8 | > 2 | – | – | – | – | – | MH5, human IgG1 (antibody, V domains shown, IgG1; also called C-KIT-MH5; C-KIT-MHS) VH: QVQLVQSGAEVKKPGASVKVSCKASGYTFTDYYMNWVRQAPGQGLEWMGRIYPGSGNTYYAQKFQGRVTMTRDTSTSTVYMELSSLRSEDTAVYYCARGVYYYDYWGQGTLVTVSS VL: DIQMTQSPSSLSASVGDRVTITCRASQGIRTNLAWFQQKPGKAPKSLIYSASSLQSGVPSRFSGSGSGTDFTLTISSLQPEDFATYYCQQYANYPRTFGGGTKVEIK
– | – | ~0.1 | – | – | – | – | > 1.8 | > 2 | no binding (tested: 0.5 and 2 µg/ml) | no binding (tested: 0.5 and 2 µg/ml) | no binding (tested: 0.5 and 2 µg/ml) | – | – | MH1, human IgG1 (antibody, V domains shown, IgG1; also called IgG1-MH1) VH: QVQLVQSGAEVKKPGASVKVSCKASGYTFTDYYMNWVRQAPGQGLEWMGRIYPGSGNTYYAQKFQGRVTMTRDTSTSTVYMELSSLRSEDTAVYYCARGVYYYDYWGQGTLVTVSS VL: DIQMTQSPSSLSASVGDRVTITCRASQGIRTNLAWFQQKPGKAPKSLIYAASSLQSGVPSRFSGSGSGTDFTLTISSLQPEDFATYYCQQYNSYPRTFGGGTKVEIK
– | – | – | ~0.4 | 0.134 | 0.164 | ~0.4 | > 1.8 | > 2 | – | – | – | – | – | MH5.22 (antibody, IgG1, V domains shown, IgG1; also called C-KIT-MH5.22) VH: QVQLVQSGAEVKKPGASVKVSCKASGYTFTDFYMNWVRQAPGQGLEWMGRIYPASGNTYYAQKFQGRVTMTRDTSTSTVYMELSSLRSEDTAVYYCARGVWYYDYWGQGTLVTVSS VL: DIQMTQSPSSLSASVGDRVTITCRASQGIRTNLAWFQQKPGKAPKSLIYAASSLQSGVPSRFSGSGSGTDFTLTISSLQPEDFATYYCQQYANYPRTFGGGTKVEIK
~0.1 | 0.025 | ~0.2 | ~0.2 | 0.016 | – | – | > 1.8 | – | no binding (tested: 0.5 and 2 µg/ml) | no binding (tested: 0.5 and 2 µg/ml) | no binding (tested: 0.5 and 2 µg/ml) | no binding (tested: 1 µg/ml) | no binding (tested: 1 µg/ml) | humanized h37M, human IgG1 (antibody, V domains shown, human IgG1; terbium-labelled as the tracer of the HTRF assays; also called C-KIT-h37M; h37M-IgG1) VH: QVQLVQSGAEVKKPGASVKLSCKASGYTFTDYYINWVRQAPGKGLEWIARIYPGSGNTYYNEKFKGRATLTADKSTSTAYMQLSSLRSEDTAVYFCARGVYYFDYWGQGTTVTVSS VL: DIVMTQSPSSLSASVGDRVTITCKASQNVRTNVAWYQQKPGKAPKALIYSASYRYSGVPDRFTGSGSGTDFTLTISSLQPEDFADYFCQQYNSYPRTFGGGTKVEIK
